Test results: article PMC5353710, “Structural insights into the γ-lactamase activity and substrate enantioselectivity of an isochorismatase-like hydrolase from Microbacterium hydrocarbonoxydans” (Scientific Reports, 2017)

Target: isochorismatase-like hydrolase Mh33H4-5540 from Microbacterium hydrocarbonoxydans (Microbacterium hydrocarbonoxydans)
Assay: SEC; gel filtration of purified MhIHL (Supplementary Fig. S1); conditions of this run not told in the main text

stoichiometry N: 2
Substance: isochorismatase-like hydrolase Mh33H4-5540 from Microbacterium hydrocarbonoxydans (enzyme)
